Assay results from US20240010682A1 (UNIVERSIT T BASEL, published 2024).
Changes are numbered by the printed parent chain. Each block holds one binder with its values, some of them ahead of it.

Experiments:
[1] = molecular target: fibrin (Fb) network formed from human fibrinogen by thrombin (human) (UniProt P02671); assay: two-colour confocal fluorescence microscopy of Fb clots formed at 22 C, Coloc2 in ImageJ
[2] = molecular target: fibrin (Fb) network formed from human fibrinogen by thrombin (human) (UniProt P02671); assay: two-colour confocal fluorescence microscopy of Fb clots formed at 37 C, Coloc2 in ImageJ
[3] = molecular target: T1, fibrin (Fb) network formed from human fibrinogen by thrombin (human, UniProt P02671 36-629; P02675 45-491; P02679 27-437, limits assumed); assay: two-colour confocal fluorescence microscopy of Fb clots formed at 22 C, colocalisation (Coloc2)
T1 construct: Human fibrinogen (FIB 3; depleted of plasminogen, fibronectin and von Willebrand Factor), spiked with 1% AlexaFluor 488-labelled fibrinogen and clotted with thrombin and CaCl2; In the imaging experiments it is a cross-linked gel, not a soluble protein; also called Fb clot; Fb fibers
T1 sequence (looked up) 1: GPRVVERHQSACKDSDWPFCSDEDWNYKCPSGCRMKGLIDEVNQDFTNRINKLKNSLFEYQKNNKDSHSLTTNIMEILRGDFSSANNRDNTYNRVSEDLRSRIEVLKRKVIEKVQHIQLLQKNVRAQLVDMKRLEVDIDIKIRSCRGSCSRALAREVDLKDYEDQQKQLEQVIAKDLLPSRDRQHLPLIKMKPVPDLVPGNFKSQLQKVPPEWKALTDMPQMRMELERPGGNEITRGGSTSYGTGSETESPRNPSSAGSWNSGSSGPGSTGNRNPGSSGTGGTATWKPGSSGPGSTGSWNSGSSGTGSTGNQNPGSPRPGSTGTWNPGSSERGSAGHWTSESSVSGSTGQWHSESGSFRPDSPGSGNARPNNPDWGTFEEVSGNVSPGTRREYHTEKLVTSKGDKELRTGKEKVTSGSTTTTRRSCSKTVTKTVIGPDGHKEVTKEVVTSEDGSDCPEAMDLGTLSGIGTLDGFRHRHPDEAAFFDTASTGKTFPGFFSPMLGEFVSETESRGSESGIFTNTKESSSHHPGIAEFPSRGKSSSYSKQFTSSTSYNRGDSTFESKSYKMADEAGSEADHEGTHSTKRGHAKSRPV
T1 sequence (looked up) 2: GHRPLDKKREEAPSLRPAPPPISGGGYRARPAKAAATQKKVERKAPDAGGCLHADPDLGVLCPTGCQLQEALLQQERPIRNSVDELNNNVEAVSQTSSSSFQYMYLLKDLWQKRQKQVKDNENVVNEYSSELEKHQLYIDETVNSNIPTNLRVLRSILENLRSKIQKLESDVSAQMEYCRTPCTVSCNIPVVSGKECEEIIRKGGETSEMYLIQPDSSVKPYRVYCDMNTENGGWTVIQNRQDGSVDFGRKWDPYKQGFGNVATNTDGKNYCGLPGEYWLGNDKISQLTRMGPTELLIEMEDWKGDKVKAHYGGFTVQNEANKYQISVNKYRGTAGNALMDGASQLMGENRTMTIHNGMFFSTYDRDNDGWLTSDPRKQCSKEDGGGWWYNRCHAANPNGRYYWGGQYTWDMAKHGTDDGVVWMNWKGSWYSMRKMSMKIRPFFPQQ
T1 sequence (looked up) 3: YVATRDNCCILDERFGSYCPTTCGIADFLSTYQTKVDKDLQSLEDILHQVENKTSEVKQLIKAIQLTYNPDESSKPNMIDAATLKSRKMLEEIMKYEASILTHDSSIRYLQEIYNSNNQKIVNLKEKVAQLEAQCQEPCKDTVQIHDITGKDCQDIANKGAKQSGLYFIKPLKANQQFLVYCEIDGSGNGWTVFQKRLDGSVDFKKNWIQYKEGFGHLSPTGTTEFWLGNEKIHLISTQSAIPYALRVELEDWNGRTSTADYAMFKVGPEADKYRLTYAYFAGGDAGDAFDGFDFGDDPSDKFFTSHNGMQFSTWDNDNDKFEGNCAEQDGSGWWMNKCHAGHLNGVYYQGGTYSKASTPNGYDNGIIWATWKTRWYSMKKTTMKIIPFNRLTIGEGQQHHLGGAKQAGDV
From the text: The inventors N-terminally labelled hELPs and conELPs with Atto647-N-hydroxysuccinimide (red channel) and confirmed they were still cross-linked by FXIIIa. Fluorescent-hELPs (f-hELPs) or fluorescent-conELPs (f-conELPs) were then integrated into Fb clots spiked with 1% AlexaFluor 488-labelled fibrinogen (Fg-488, green channel). The inventors used two color confocal fluorescence microscopy to characterize hELP and Fb network morphology, degree of hELP and Fb colocalization, and the influence of hELP phase transition on clot architecture. […] The inventors observed little to no fluorescence intensity in the red channel when only HEPES buffer or f-conELP were added during formation of Fb networks (FIG. 3a, left, HEPES & conELP).
To quantify hELP and Fb spatial colocalization, the inventors used Coloc2 in ImageJ to calculate Pearson's correlation coefficients (PCC) (J. Adler, I. Parmryd, Cytom. Part A 2010, 77, 733). For f-hELP-Fb clots at 22° C., a PCC between f-hELP and Fb channels of 0.69±0.1 indicated high spatial correlation. For f-conELP-Fb clots, a PCC value of 0.05±0.09 indicated no spatial correlation (FIG. 3b).

- Pearson's correlation coefficient (PCC) between f-hELP and Fb channels [1]: 0.69
- Pearson's correlation coefficient (PCC) between ELP and Fb channels [2]: 0.163
B1: fluorescent hELP (f-hELP), hELP labelled with Atto647-N-hydroxysuccinimide (protein)
chain: MGHGVGVPGVGVPGAGVPGVGVPGVGVPGVGVPGVGVPGVGVPGVGVPGVGVPGEGVPGAGSGDQMMLPWPAVALSGVPGVGVPGVGVPGAGVPGVGVPGVGVPGVGVPGVGVPGVGVPGVGVPGVGVPGEGVPGAGSGDQMMLPWPAVALSGVPGVGVPGVGVPGAGVPGVGVPGVGVPGVGVPGVGVPGVGVPGVGVPGVGVPGEGVPGAGSGDQMMLPWPAVALSGVPGVGVPGVGVPGAGVPGVGVPGVGVPGVGVPGVGVPGVGVPGVGVPGVGVPGEGVPGAGSGDQMMLPWPAVALSGVPGVGVPGVGVPGAGVPGVGVPGVGVPGVGVPGVGVPGVGVPGVGVPGVGVPGEGVPGAGVPGVGVPGVGVPGAGVPGVGVPGVGVPGVGVPGVGVPGVGVPGVGVPGVGVPGEGVPGAGVPGVGVPGVGVPGAGVPGVGVPGVGVPGVGVPGVGVPGVGVPGVGVPGVGVPGEGVPGAGVPGVGVPGVGVPGAGVPGVGVPGVGVPGVGVPGVGVPGVGVPGVGVPGVGVPGEGVPGAGVPGVGVPGVGVPGAGVPGVGVPGVGVPGVGVPGVGVPGVGVPGVGVPGVGVPGEGVPGAGSGGSKGSSGVPGVGVPGVGVPGAGVPGVGVPGVGVPGVGVPGVGVPGVGVPGVGVPGVGVPGEGVPGAGSGGSKGSSGVPGVGVPGVGVPGAGVPGVGVPGVGVPGVGVPGVGVPGVGVPGVGVPGVGVPGEGVPGAGSGGSKGSSGVPGVGVPGVGVPGAGVPGVGVPGVGVPGVGVPGVGVPGVGVPGVGVPGVGVPGEGVPGAGSGGSKGSSGVPGWLDSLEFIA
modifications: chain 1 pos 1: N-terminal alpha-amine preferentially labelled with Atto647-NHS dye (about 0.95 dye per ELP), written M; minor labelling of K-block lysines is possible.

- binding result [3]: no binding (tested: 30 µM f-conELP)
B2: fluorescent conELP (f-conELP), conELP labelled with Atto647-N-hydroxysuccinimide (other)
chain: B1 chain with Q65G, Q141G, Q217G, Q293G, K610G, K679G, K748G, K817G
modifications: chain 1 pos 1: N-terminal alpha-amine labelled with Atto647-NHS dye (about 0.95 dye per ELP), written M.
notes: also called f-conELPs; fluorescent-conELPs
